Measured values as given in PMC12309606.

Key:
[1] = biological target: Biotinylated C-terminal cysteine-tagged MR1–5-OP-RU (SPR) (human) (UniProt Q95460); experiment: SPR
[2] = biological target: MR1 on untreated C1R.MR1 cells (UniProt Q95460); experiment: flow cytometry, TCR tetramer staining on C1R.MR1 cells; settings: No Ligand
[3] = biological target: MR1 on C1R.MR1 cells pulsed with 5-OP-RU (UniProt Q95460); experiment: as above; settings: 5-OP-RU (10 µM), pulsed for 5 h
[4] = biological target: MR1 on C1R.MR1 cells pulsed with Ac-6-FP (UniProt Q95460); experiment: as above; settings: Ac-6-FP (10 µM), pulsed for 5 h
[5] = biological target: M33-64 TCR tetramer; experiment: flow cytometry, TCR tetramer staining on C1R.MR1 mutant cells; settings: 1 μM 5-OP-RU for 3 h; stained 30 min at room temperature; parent: est. 6400; read off a plot
[6] = biological target: MAV36 TCR Ser49β alanine mutant on HEK293T cells (human); experiment: flow cytometry on cells; PE-labeled MR1–5-OP-RU tetramer (0.5 μg/ml, nonsaturating) staining of HEK293T cells transiently expressing MAV36 TCR or alanine mutants with CD3, 15 min at room temperature; gates normalised for TCR level by anti-Vβ3
[7] = biological target: MAV36 TCR Gln99β alanine mutant on HEK293T cells (human); experiment: as above

Substance: A-F7 TCR (TRAV1-2–TRBV6-1), soluble
- Kd [1]: 2700 nM

Substance: M33-64 TCR tetramer Tyr95αAla
- response [2]: 162 MFI
- response [3]: 61300 MFI
- response [4]: 166 MFI

Substance: M33-64 TCR tetramer Tyr95αPhe
- response [2]: 171 MFI
- response [3]: 140000 MFI
- response [4]: 20900 MFI

Substance: MR1 on C1R.MR1 cells pulsed with 5-OP-RU (from UniProt Q95460) D57A
- response [5]: 6100 MFI

Substance: MR1 on C1R.MR1 cells pulsed with 5-OP-RU (from UniProt Q95460) E158A
- response [5]: 2800 MFI

Substance: MR1 on C1R.MR1 cells pulsed with 5-OP-RU (from UniProt Q95460) H148A
- response [5]: 4600 MFI

Substance: MR1 on C1R.MR1 cells pulsed with 5-OP-RU (from UniProt Q95460) L65A
- response [5]: 1300 MFI

Substance: MR1 on C1R.MR1 cells pulsed with 5-OP-RU (from UniProt Q95460) L151A
- response [5]: 7000 MFI

Substance: MR1 on C1R.MR1 cells pulsed with 5-OP-RU (from UniProt Q95460) M72A
- response [5]: 5900 MFI

Substance: MR1 on C1R.MR1 cells pulsed with 5-OP-RU (from UniProt Q95460) N146A
- response [5]: 4000 MFI

Substance: MR1 on C1R.MR1 cells pulsed with 5-OP-RU (from UniProt Q95460) N155A
- response [5]: 1600 MFI

Substance: MR1 on C1R.MR1 cells pulsed with 5-OP-RU (from UniProt Q95460) Q141A
- response [5]: 5400 MFI

Substance: MR1 on C1R.MR1 cells pulsed with 5-OP-RU (from UniProt Q95460) R61A
- response [5]: 5000 MFI

Substance: MR1 on C1R.MR1 cells pulsed with 5-OP-RU (from UniProt Q95460) R79A
- response [5]: 6600 MFI

Substance: MR1 on C1R.MR1 cells pulsed with 5-OP-RU (from UniProt Q95460) R167A
- response [5]: 5700 MFI

Substance: MR1 on C1R.MR1 cells pulsed with 5-OP-RU (from UniProt Q95460) T138A
- response [5]: 5500 MFI

Substance: MR1 on C1R.MR1 cells pulsed with 5-OP-RU (from UniProt Q95460) V75A
- response [5]: 6400 MFI

Substance: PE-labeled MR1–5-OP-RU tetramer (from UniProt Q95460 23-341; P61769 21-119) (complex)
- reduction of tetramer staining against the wildtype TCR [6]: 50%
- reduction of tetramer staining against the wildtype TCR [7]: 50%
